How the values were obtained:
[1] = molecular target: Bacillaceae bacterium MTCC 10057 encapsulin capsid protein (Bacillaceae bacterium MTCC 10057); assay: co-purification with encapsulin capsids
[2] = molecular target: Streptomyces sp. AA4 hemerythrin cargo with C-terminal His6 tag (Streptomyces sp. AA4); assay: SEC
[3] = molecular target: Streptomyces sp. AA4 encapsulin capsid protein (Streptomyces sp. AA4); assay: co-purification with encapsulin capsids
[4] = molecular target: Kuenenia stuttgartiensis encapsulin without the N-terminal cytochrome domain (Kuenenia stuttgartiensis) (UniProt Q1Q6L7); assay: co-purification with encapsulin capsids
[5] = molecular target: Bacillaceae bacterium MTCC 10057 Geobac cargo protein with C-terminal His6 tag (Bacillaceae bacterium MTCC 10057); assay: SEC

Bacillaceae bacterium MTCC 10057 Geobac cargo protein, with C-terminal targeting peptide (natural protein)
molecules of cargo per 180 subunit capsid (molecules per 180 subunit capsid) [1]: 150

Streptomyces sp. AA4 hemerythrin cargo with C-terminal His6 tag (natural protein)
stoichiometry N [2]: 2

Streptomyces sp. AA4 hemerythrin cargo (Heme), with C-terminal targeting peptide (natural protein)
molecules of cargo per 60 subunit capsid (molecules per 60 subunit capsid) [3]: 20

NIR domain (N-terminal cupredoxin domain) of the Kuenenia stuttgartiensis NIR-HAO fusion protein (domain or fragment)
copies of cargo per 180mer capsid (copies per 180mer capsid) [4]: 15

Bacillaceae bacterium MTCC 10057 Ferredoxin cargo (Fer), with N-terminal targeting peptide (natural protein)
molecules of cargo per 180 subunit capsid (molecules per 180 subunit capsid) [1]: 10

Bacillaceae bacterium MTCC 10057 Geobac cargo protein with C-terminal His6 tag (natural protein)
stoichiometry N [5]: 2

— publication doi:10.1101/085266
